Data as given in patent US20250218531A1.
Values joined by “and” are separate entries in the source; they are usually repeats but may differ in a detail not shown here. Equal values may be shown once. Read-outs that look alike come from different tables or passages of the source.

Tests used:
[1] = molecular target: human epidermal growth factor receptor 2 (HER2) extracellular domain (human) (UniProt P04626); test: SPR, table row 20
[2] = molecular target: human vascular endothelial growth factor A (VEGF-A) (human) (UniProt P15692); test: SPR, table row 20
human vascular endothelial growth factor A (VEGF-A) (human), sequence (P15692 220-313 limits assumed): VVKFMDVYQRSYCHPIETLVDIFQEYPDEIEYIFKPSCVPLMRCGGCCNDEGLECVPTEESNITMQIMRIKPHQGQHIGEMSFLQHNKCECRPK

[3] = molecular target: human vascular endothelial growth factor A (VEGF-A) (human) (UniProt P15692); test: SPR, table row 18
[4] = molecular target: human vascular endothelial growth factor A (VEGF-A) (human) (UniProt P15692); test: SPR, table row 17
[5] = molecular target: human epidermal growth factor receptor 2 (HER2) extracellular domain (human) (UniProt P04626); test: SPR
[6] = molecular target: human vascular endothelial growth factor A (VEGF-A) (human) (UniProt P15692); test: SPR
[7] = molecular target: human vascular endothelial growth factor A (VEGF-A) (human) (UniProt P15692); test: SPR, table row 15
[8] = molecular target: human vascular endothelial growth factor A (VEGF-A) (human) (UniProt P15692)
[9] = molecular target: human epidermal growth factor receptor 2 (HER2) extracellular domain (human) (UniProt P04626); test: not stated (FIG. 6A)
[10] = molecular target: human vascular endothelial growth factor A (VEGF-A) (human) (UniProt P15692); test: not stated (FIG. 6A)
[11] = molecular target: human epidermal growth factor receptor 2 (HER2) extracellular domain (human) (UniProt P04626); test: SPR, table row 12
[12] = molecular target: human vascular endothelial growth factor A (VEGF-A) (human) (UniProt P15692); test: SPR, table row 12

Substance: Trastuzumab bH1 (antibody)
- Kd [1]: 10.3 nM
- koff [1]: 9.72e-05 s⁻¹
- kon [1]: 9470 M⁻¹ s⁻¹
- Kd [2]: 24.2 nM
- koff [2]: 0.00026 s⁻¹
- kon [2]: 10800 M⁻¹ s⁻¹
- Kd [3]: 23.2 nM
- koff [3]: 0.00025 s⁻¹
- kon [3]: 10800 M⁻¹ s⁻¹
- Kd [4]: 22.7 nM
- koff [4]: 0.00028 s⁻¹
- kon [4]: 12300 M⁻¹ s⁻¹
- Kd [5]: 32.9 nM
- Kd [6]: 23.5 nM
- Kd [7]: 21.8 nM
- koff [7]: 0.000254 s⁻¹
- kon [7]: 11700 M⁻¹ s⁻¹
- Kd [8]: 24.8 nM and 26.2 nM and 31.1 nM
- koff [8]: 0.00027 s⁻¹ and 0.000282 s⁻¹ and 0.000342 s⁻¹
- kon [8]: 10900 M⁻¹ s⁻¹ and 10800 M⁻¹ s⁻¹ and 11000 M⁻¹ s⁻¹
- Kd [9]: 26 nM
- Kd [10]: 300 nM
- Kd [11]: 3.22 nM
- koff [11]: 6.2e-05 s⁻¹
- kon [11]: 19300 M⁻¹ s⁻¹
- Kd [12]: 18.4 nM
- koff [12]: 0.000211 s⁻¹
- kon [12]: 11500 M⁻¹ s⁻¹
